Data on three molecules can be found in patent US20170283495A1 (published 2017).

Where no end group is shown, it is not given here.

B1: murine anti-hepcidin MAb 583 (antibody, V domains shown)
VH: QIQLVQSGPELKKPGETVKISCKASGYTFTNYGMNWVKQAPGKGLKWMGWINTYTGEPTYADDFKGRFAFSLETSASTAYLQINNLKNEDTATYFCTTYATSWYWGQGTTLTVSS
VL: DIVLTQSPASLAVSLGQRATISCRASESVDSYGNSFMHWYQQKPGQPPKLLIYRASNLESGIPARFSGSGSRTDFTLTINPVEADDVATYYCQQSNEDLTFGGGTKLEIK
notes: Murine IgG from a hybridoma, purified on protein G (Protein A in some legends); detected with anti-mouse IgG1 (H+L); also called 5A3; hybridoma 5A3
B2: human hepcidin-20 peptide (peptide)
peptide: ICIFCCGCCHRSKCGMCCKT
notes: also called hep-20; hHepcidin-20

Assay [1] concerns the target B2. Put plainly: Western blot after non-reducing tricine SDS-PAGE.
Assay [2] deals with T1, NT-biotin hepcidin-25 (human, NT-biotin (biotin label; NT is not spelled out, taken as the N-terminus)).
T1 construct: also called NT-biotin hepcidin-25 tracer
T1 peptide: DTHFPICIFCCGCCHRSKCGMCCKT
As to the kind of experiment: Biacore SPR, biotin peptide on chip, MAb 583 at 5 µg/ml. A general note: In SPR one partner is held on a chip, and binding of the other changes the refractive index at the surface.

The target of assay [3] is T2, K18-biotin hepcidin-25 (human, biotin on K18).
T2 construct: also called K18-Biotin Hepcidin-25 tracer
T2 peptide: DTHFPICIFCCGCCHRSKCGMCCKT
The assay is described as above.

For assay [4], the target named is T1, NT-biotin hepcidin-25. Put plainly: ELISA, 583 coated at 25 ng/well, tracer 1 ng/well, SA-HRP. The method, then:
(§1) We used a microwell plate ELISA to assess antibody activity. […] The NT-biotin hepcidin-25 tracer was added across the plate at 1 ng/well in TBST, pH 8) containing 0.25% Blotto. The tracer was allowed to bind for 2 hours and the wells were washed in TBST, pH 8 with no Blotto. SA-HRP was added at 1:2500 for 30 minutes, the wells washed in TBST, and TMB substrate added for 10 minutes. Stop buffer was added the OD quantified on a spectrophotometer at 450 nm. An OD of 4 indicates the absorbance is beyond the analytic range of the spectrophotomer.

The target in assay [5] is T1, NT-biotin hepcidin-25. Put plainly: ELISA, 583 coated at 50 ng/well, tracer 1 ng/well, SA-HRP. The protocol: as §1
The target of assay [6] is T1, NT-biotin hepcidin-25. As to the kind of experiment: ELISA, 583 coated at 100 ng/well, tracer 1 ng/well, SA-HRP. The protocol:
as §1
Background: In an ELISA, binding on a coated surface is turned into a signal by an enzyme label.

In assay [7] the target is T3, human hepcidin 10-25 peptide (human, disulfide (positions not given here); also: oxidized and refolded with proper cysteine bonds, pairing not given here).
T3 construct: also called hep 10-25; hHepcidin 10-25
T3 peptide: CCGCCHRSKCGMCCKT
As to the kind of experiment: competition ELISA, MAb 583 coated, NT-biotin hepcidin-25 tracer.

For assay [8], the target named is T4, mouse hepcidin-1 peptide (mouse).
T4 construct: also called murine hepcidin-1; mouse hepcidin-25
T4 peptide: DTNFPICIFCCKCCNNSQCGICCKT
The assay is described as above.

The target in assay [9] is T1, NT-biotin hepcidin-25. As to the kind of experiment: ELISA, 583 coated at 12.5 ng/well, tracer 1 ng/well, SA-HRP. The protocol:
as §1

For assay [10], the target named is T1, NT-biotin hepcidin-25. Put plainly: Biacore SPR, biotin peptide on neutravidin chip, MAb 583 at 24 µg/ml. The method, then: (§2) Biotinylated hepcidin peptides (NT-biotin-hepcidin-25, K18-biotin-hepcidin-25 and K24-biotin-hepcidin-25) were immobilized in flow cells 2-4 (one peptide species per flow cell) by injecting individual peptides at a concentration of 200 μg/ml at a flow rate of 5 μl/min, for 20 min.
(§3) After 3 minutes, injection was stopped and dissociation was followed for 6 min. Regeneration was performed by injecting 10 mM glycine HCl, pH 1.5 at a flow rate of 10 μl/min for 1 min.

Assay [11] has as its target T2, K18-biotin hepcidin-25. The description is as above. The protocol:
as §2, §3

Assay [12] addresses T5, K24-biotin hepcidin-25 (human, biotin on K24).
T5 construct: also called K24-biotin hepcidin-25 tracer
T5 peptide: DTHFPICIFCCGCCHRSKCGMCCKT
Described as above. The protocol: as §2, §3

Assay [13] has as its target B1. Put plainly: competition ELISA, MAb 583 coated, NT-biotin hepcidin-25 tracer.
Assay [14] has as its target B1. Put plainly: C-ELISA, purified MAb 583 coated, hepcidin-25 against NT-biotin hepcidin-25 tracer (FIG. 16). The method, then:
FIG. 16. […] The relative binding of the NT-biotin hepcidin-25 tracer (1 ng/well) relative to hepcidin-25, hepcidin-22, and hepcidin-20 was measured by ELISA. Four parameter logistical regression analysis was conducted using GraphPad Prism software to produce the curves shown.

For assay [15], the target named is T6, BAP070-01 human-mouse chimeric MAb 583.
T6 construct: tested as unpurified CHO cell supernatant (3650 ng/ml IgG); also called BAP070-01 chimera
Put plainly: C-ELISA, BAP070-01 supernatant on Protein G, hepcidin-25 against NT-biotin hepcidin-25 tracer, 4-parameter fit. The method, then: To capture BAP070-01 chimeric antibodies we coated microwell plates with Protein G (150 ng/well) overnight in carbonate coating buffer.
The plate was washed with TBST and one (1) ng/well of NT-biotin hepcidin-25 was mixed with different amounts (0-100 ng) of synthetic hepcidin-25 standard in TBST, 0.25% BLOTTO and added onto the plate to bind competitively. The plate was washed with TBST and SA-HRP (1:2500) added and allowed to bind for 1 hour.
The standard curve shown in FIG. 31 was generated using a four parameter logistical regression (Graphpad Prism; San Diego, Calif.).

As usually defined, the Kd is the concentration at which binding is half-saturated. Higher therefore signals lower affinity. As usually defined, the koff is the rate constant with which the complex falls apart. Broadly, the kon is a measure of how fast the partners come together. A word on the EC50: it is the concentration needed to bring the measured effect to its halfway point.

With B1, the binding result in assay [1] is given as “binds”; in assay [7], “no binding (tested: up to 2000 ng/ml)”; in assay [8], “no binding (tested: up to 2000 ng/ml)”. For the same molecule, the Kd in assay [2] is around 0.018 nM; in [3] it was around 0.0075 nM; in assay [10] it was 0.0516 nM; in assay [11], 0.878 nM; in assay [12] it was 5.54 nM. Also, the “OD 450 nm” value in assay [4], in [5], in assay [6] and in [9] was at least 4 OD throughout. Besides, the Ka in assay [10] was found to be 1.94e+10 M⁻¹; in [11] it was 1.14e+09 M⁻¹; in [12], 1.8e+08 M⁻¹. For the same molecule, the Req in assay [10] worked out at 78.8 RU; in [11], 126 RU; in assay [12] it was 63.1 RU. The figures for the kobs in assay [10], in [11] and in assay [12] were 0.00977 s⁻¹, 0.0102 s⁻¹ and 0.0086 s⁻¹, respectively. Besides, the koff in assay [10] stood at 3.15e-06 s⁻¹; in [11] it was 5.59e-05 s⁻¹; in assay [12], 0.000288 s⁻¹. For the same molecule, the kon in assay [10] amounted to 61100 M⁻¹ s⁻¹; in assay [11] it was 63700 M⁻¹ s⁻¹; in assay [12] it was 52000 M⁻¹ s⁻¹.
Consider B2, for which, in [13], the binding result was “binds”.

B3: human hepcidin-25 (synthetic) (peptide)
peptide: DTHFPICIFCCGCCHRSKCGMCCKT
notes: Synthetic, biologically active 25 aa peptide; also called hep-25; Hep-25
Take B3: the figures for the EC50 in assay [14] and in assay [15] were at most 0.005 µg/mL and 0.054 µg/mL, respectively.
